Data on three molecules can be found in patent US9631180B2, “Recombinant manganese oxidase” (OREGON HEALTH & SCIENCE UNIVERSITY, priority 2013, dated 2017).

For data set [1] the following is noted: literature values for Fet3p ferroxidases, cited from earlier work; for Km: read-out: Fe(II) KM.
Substrate in data set [2]: CCn1c(=NN=c2sc3cc(S(=O)(=O)O)ccc3n2CC)sc2cc(S(=O)(=O)O)ccc21
In words: purified protein, by the assay type. The class given is biochemical, Bacillus sp. PL-12. Conditions: other: ABTS, 22° C., 420 nm. The procedure:
(§1) FIG. 8B is a plot showing the initial oxidation velocity of DMP plotted against initial substrate concentration in a reaction catalyzed by the recombinant Mn oxidase complex. […]
(§2) All plots in FIGS. 8A, 8B, and 8C were fitted with either Michaelis-Menten or allosteric sigmoidal functions as appropriate.
(§3) Kinetic experiments were performed on the Molecular Devices SpectraMax® M2 microplate reader spectrophotometer at 22° C. with purified protein. […] Reactions were carried out with 10 μg Mnx (final 240 nM) 100 mM in phosphate-citrate buffer pH 3-8 and 20 mM CHES, HEPES, and MES at pH 7-10. […] These assays were performed in at least two independent trials in triplicate. Fe(II) (ferrous ammonium sulfate) oxidation was measured by quenching 200 μl reactions with 50 μl of the Fe(II) chelating colorimetric assay FerroZine® (15 mM) and a ferrous ammonium sulfate standard curve, noting the absorbance at 570 nm. Fe(II) oxidation reactions were performed with 10 μg recombinant Mn oxidase complex in 100 mM Na acetate-acetic acid buffer (pH 4-5.5). Mn(II) (MnCl2) oxidation in 20 mM HEPES (pH 7-8.5) was measured by quenching 5 μl of 200 μl reactions with 195 μl leucoberbelin blue (LBB) colorimetric reagent and reading the absorbance at 618 nm. Working LBB reagent was prepared by diluting concentrated stock (100 mg LBB in 25 ml 0.4% NaOH) 1:10 into 1% acetic acid. A KMnO4 standard curve was used to determine MnO2 oxide equivalent concentration. The metal substrate assays were performed in five independent trials then the high and low values were discarded from each concentration. The linear part of each curve was fit plotted and fit with a linear regression in GraphPad Prism®. These slopes were converted to the appropriate kinetic units, plotted, and fit with nonlinear regressions determined by comparing best fit values in the same software. KM and Vmax were determined and reported as KM and kcat=Vmax/[enzyme].

Substrate in data set [3]: COc1cccc(OC)c1O
In words: purified protein, by the assay type. Format: biochemical, Bacillus sp. PL-12. Conditions: other: 2,6-DMP, pH 8, HEPES, 22° C., 468 nm, Michaelis-Menten, pH 8.0. The procedure: as §1, §2, §3

[4] abbreviates: pH 4.5, phosphate-citrate buffer, Michaelis-Menten, pH 4.5.
[5] abbreviates: pH 8, HEPES, allosteric sigmoidal function, pH 8.0.

B1: Fet3p C. albicans: ferroxidase Fet3p from Candida albicans, described in Ziegler et al 2011 (protein, UniProt P78591 21-624, looked up)
Iron transport multicopper …: AETHTWYFKTGWVDANPDGVYPRKMIGFNDSWPLPTLRVKKGDRVQLYLINGFDNLNTTLHFHGLFVRGANQMDGPEMVTQCPIPPGETYLYNFTVTDQVGTYWYHSHTGGQYGDGMRGVFIIEDDDFPYHYDEEVVLTLSDHYHKYSGDIGPAFLTRFNPTGAEPIPQNFLFNETRNATWKVEPGKTYFVRILNVGGFVSQYLWMEDHEFTIVEIDGVYVEKNTTDLIYITVAQRYGVLITTKNSTDKNYVFMNGVDTTMLDSVPADLQVNGTNYIVYNESSALPDAYDIDSYDDALDDFYLKPLSKQKLMDDADYTITVDVQMNVLNDGINYAFFNNISYKAPKVPTLLTVLSAGEAATNELIYGTNTNSFVLQGGDIVDIVLNNFDTGKHPFHLHGHVFQLIERHEAIGSKESAVTFNVSDHAEWPEYPMIRDTVYVKPHSYMVLRFKADNPVVWFFHCHVDWHLEQGLAVVLIEDPQAIQKNEKITENHKRICEKVGVPWEGNAAANSNDYLDLKGENVQVKRLPTGFTTKGIVALVFSCVAAFLGLFSFSFYGMNDIAHVEDKVARDLDIDLEAENEDEEEAVVLNQNSSSSDSNSKPH
Broadly, the Km is the concentration of substrate that gives half-maximal velocity. For the molecule B1, in data set [1], the “Fe(II) kcat” value was 1.06 ± 0.02 s⁻¹ and the Km was 7.9 ± 0.5 µM.

B2: Fet3p S. cerevisiae: ferroxidase Fet3p from Saccharomyces cerevisiae, described in Stoj et al 2006 (protein, UniProt P38993 22-636, looked up)
Iron transport multicopper …: ETHTFNWTTGWDYRNVDGLKSRPVITCNGQFPWPDITVNKGDRVQIYLTNGMNNTNTSMHFHGLFQNGTASMDGVPFLTQCPIAPGSTMLYNFTVDYNVGTYWYHSHTDGQYEDGMKGLFIIKDDSFPYDYDEELSLSLSEWYHDLVTDLTKSFMSVYNPTGAEPIPQNLIVNNTMNLTWEVQPDTTYLLRIVNVGGFVSQYFWIEDHEMTVVEIDGITTEKNVTDMLYITVAQRYTVLVHTKNDTDKNFAIMQKFDDTMLDVIPSDLQLNATSYMVYNKTAALPTQNYVDSIDNFLDDFYLQPYEKEAIYGEPDHVITVDVVMDNLKNGVNYAFFNNITYTAPKVPTLMTVLSSGDQANNSEIYGSNTHTFILEKDEIVEIVLNNQDTGTHPFHLHGHAFQTIQRDRTYDDALGEVPHSFDPDNHPAFPEYPMRRDTLYVRPQSNFVIRFKADNPGVWFFHCHIEWHLLQGLGLVLVEDPFGIQDAHSQQLSENHLEVCQSCSVATEGNAAANTLDLTDLTGENVQHAFIPTGFTKKGIIAMTFSCFAGILGIITIAIYGMMDMEDATEKVIRDLHVDPEVLLNEVDENEERQVNEDRHSTEKHQFLTKAKRFF
As to B2, in data set [1], the “Fe(II) kcat” value is 0.835 ± 0.023 s⁻¹ and the Km was 4.9 ± 0.8 µM.

B3: recombinant Bacillus sp. PL-12 Mn oxidase complex (Mnx; MnxE3F3G), MnxG (SEQ ID NO: 7), MnxE (SEQ ID NO: 5) and MnxF (SEQ ID NO: 6) (Bacillus sp. PL-12) (protein)
chain: MLRKFHVVGISTRIVVNTFGDHNPNGRIYVLKENESKLKDLVRKNPYKPIDLVQPLAIRANEGDIVEILFENQLSFSAGMHFQEADYSVLSSDGADAGYNPDTTVEPGGEILYRLNVNQEGICFFTDLGNVSSTEQGSSVQGLFGALLVQKRGSSWTDPVTGGPINSGVYADIHHPFLPSFREYAWFFNDEMEIRDLTGERPLNPMTNQEAESFHGVNLRYEPMTNRKRLMEAGVVCPDCDSEEVHHDSWVFGDPATPILRGYVGDPAVIRLIHGGVKETHVFHYHVHQWLGDSSNINAEILDAQSISPQTHYSIQPLYGLGSLHGAIGDSIIHCHLYPHFGIGMWGMNRVFDTLQDGSQCYPNGVRIKALMPLPDRPEPPKPTPEKPGFPNFIPGKVGYKAPRPPLGIVGGREMTELERNAAIENPRPGAVFVDPCLDQDPVVVEFNVSAIEMPVVYNKQGWHDPKARFYVMDEDLDDILSGKKEPEPLVFHVPAGTCIRMNYTNRMPHILDGDAFQLVTRTYENGFHIHFVKFDVLACDGGNVGWNYDSAVLPGQTIRYEWYAETELKAFFFHDHLFANSHQQHGVFGAGVIQPRFSKFLDSRTGDEVDHGTQISVEHPLIPDYRDQTLFVHDFALLFDKNGRPIQPPEYPGSEDDPGVFGVNFKCEPLKFRLGEDCDPAYSFSSYVHGDPVTPILRAYEGDPIRIRLLQGAHEESHSFNIHGLRWKEERPDLGSSMKAQQHIGISESFTFETEIPASGDYLWAFEDEEDVWLGTWGLIRAYKGRMEDLIVLTDREALPEGSAETPKPTGKPPEKANPLASLPPGAYQGSPVKKFEVVAFQTPIQYNSYGDHDPYGIIFALKEDVEDILTGKKNPVPLILRANVGDLVEVTLTSELKKELFPFQDGIHPYPPVKEQSFYPPSLRISLHTSLLNYDVKTSSGDTVGYNPDQTVGPGETITYRWFVDGQFGMCSMWDMADLRNHRSFGTFGAFVAESRFTTYLDPYSLEKAITGENVILRHPLLPATREFVLILHDGVRLEDKDGKVIIDPMDGVVPDTEELEEVDTYDYGSRGFNYRSERLINRYKEHPVMHELFSSEVFGDPATPLFEAYPGEPVVMRITTPAERRRAHTFHLHGHYWKFDSKDLDSRIQSFLGHMVTGHTDDLRLIGGAGGVFNFPGDYLYRSGNIRWDIELGMWGIFRVHKDSKENLPRLEEVEGGWDNEEKA
notes: Cu-loaded; purified ~230 kDa complex of MnxG, MnxE and MnxF; MnxD not found by MS
What is called kcat is the number of substrate molecules converted per active site and unit of time at saturation. B3: the results for the Km in data set [2] (setting [4]), in data set [2] (setting [5]) and in data set [3] were 456 ± 23.3 µM, 3126 ± 391 µM and 576 ± 163 µM, respectively. Moreover, the kcat was found to be 0.206 ± 0.0136 s⁻¹ in data set [2] (setting [4]) and 0.0595 ± 0.00891 s⁻¹ in data set [2] (setting [5]).
